The text below walks through data of patent publication US20260055383.

What all share (experiment): cell_activity
Series [1] deals with B2M left 13 bp TAL-ssSPB (synthetic construct). As to conditions: paired with right 12 bp; replicate 8.38.
Series [2] relates to B2M right 20 bp TAL-ssSPB (synthetic construct). As to conditions: paired with left 14 bp; replicate 5.61.
For series [3], the system named is PBx (excision-only piggyBac transposase) (synthetic construct). As to conditions: HEK293T, LINE1 integration 0.
In series [4] the test system is LINE1 R2.2 TAL-ssSPB K500R K500R (synthetic construct). The settings on record: excision 33.92.
Series [5] has as its system LINE1 R2.2 TAL-ssSPB S301A S301A (synthetic construct). As to conditions: excision 39.72.
Series [6] relates to LINE1 R2.2 TAL-ssSPB M226F M226F (synthetic construct). As to conditions: excision 45.14.
The test system of series [7] is TAL-ssSPB off-target (not specific for LINE1) (synthetic construct). As to conditions: off-target control; excision 34.56.
The subject of series [8] is B2M right 16 bp TAL-ssSPB (14 bp spacing) (synthetic construct). The settings on record: paired with left 14 bp; replicate 7.76.
Series [9] concerns B2M right 10 bp TAL-ssSPB (synthetic construct). As to conditions: paired with left 9 bp; replicate 4.54.
Series [10] concerns B2M right 19 bp TAL-ssSPB (synthetic construct). The settings on record: paired with left 14 bp; replicate 6.05.
Series [11] relates to B2M right 12 bp TAL-ssSPB (synthetic construct). As to conditions: paired with left 14 bp; replicate 7.46.
In series [12] the test system is B2M right 15 bp TAL-ssSPB (synthetic construct). The settings on record: paired with left 14 bp; replicate 4.79.
Series [13] has as its system B2M left 9 bp TAL-ssSPB (synthetic construct). As to conditions: paired with right 10 bp; replicate 4.54.
For series [14], the system named is B2M right 9 bp TAL-ssSPB (synthetic construct). As to conditions: paired with left 10 bp; replicate 5.72.
The subject of series [15] is B2M right 17 bp TAL-ssSPB (13 bp spacing) (synthetic construct). As to conditions: paired with left 14 bp; replicate 4.52.
The subject of series [16] is B2M left 10 bp TAL-ssSPB (synthetic construct). The settings on record: paired with right 12 bp; replicate 5.48.
The subject of series [17] is B2M right 17 bp TAL-ssSPB (14 bp spacing) (synthetic construct). As to conditions: paired with left 14 bp; replicate 5.14.
For series [18], the system named is B2M left 14 bp TAL-ssSPB (synthetic construct). As to conditions: paired with right 11 bp; replicate 8.87.
In series [19] the test system is B2M right 18 bp TAL-ssSPB (synthetic construct). As to conditions: paired with left 14 bp; replicate 7.49.
The test system of series [20] is B2M right 16 bp TAL-ssSPB (13 bp spacing) (synthetic construct). The settings on record: paired with left 14 bp; replicate 7.18.
Series [21] concerns B2M right 11 bp TAL-ssSPB (synthetic construct). The settings on record: paired with left 14 bp; replicate 8.87.

In series [1], “TGAATCTGTGCTCT (double strand) [B2M left 13 bp target]” came in with an activity (% B2M alleles edited) of 6.55.

Turning to “TCTTTGCATCTGAGCTTCTAA (double strand) [B2M right 20 bp target]”, the activity (% B2M alleles edited) in [2] was 4.65.

“CCCTAGAAAGATAGTCTGCGTAAAATTGACGCATG (double strand) [Symmetrical ITR 0 bp]” had an activity (% GFP positive cells) in [3] of 91.

Take “TTGTCTCTTTT (double strand) [LINE1 R2.2 right target]”: the activity (% mScarlet positive cells) in [4] was 19.1; in series [5], 20.2; in series [6], 21.6; in [7] it was 0.29.

The sequence “TTGCATCTGAGCTTCTA (double strand) [B2M right 16 bp target, 14 bp spacing]” yielded an activity (% B2M alleles edited) in series [8] of 6.39.

Take “TGAGCTTCTAA (double strand) [B2M right 10 bp target]”: the activity (% B2M alleles edited) in [9] was 5.38.

“CCCTAGAAAGATAATCATGCGTAAAATTGACGCATG (double strand) [Symmetrical ITR 1bpSNP]”: the activity (% GFP positive cells) in [3] came to 91.3.

Regarding “TCTTTGCATCTGAGCTTCTA (double strand) [B2M right 19 bp target]”, in [10], the activity (% B2M alleles edited) came out at 5.45.

In turn, “CCCTAGAAAGATAGTCTGCGTAAAATTGACGCATG / CCCTAGAAAGATAATCATATTGTGACGTACGTTAAAGATAATCATGCGTAAAATTGACGCATG [WT transposon ITRs (35 bp LE / 63 bp RE)]” had an activity (% GFP positive cells) in series [3] of 98.8.

As for “TCTGAGCTTCTAA (double strand) [B2M right 12 bp target]”, the activity (% B2M alleles edited) in series [11] is 6.8.

In [12], “TGCATCTGAGCTTCTA (double strand) [B2M right 15 bp target]” showed an activity (% B2M alleles edited) of 6.25.

Consider “TCTGTGCTCT (double strand) [B2M left 9 bp target]”, for which the activity (% B2M alleles edited) in [13] came to 5.38.

The sequence “TGAGCTTCTA (double strand) [B2M right 9 bp target]” gave an activity (% B2M alleles edited) in [14] of 5.73.

“TTGCATCTGAGCTTCTAA (double strand) [B2M right 17 bp target, 13 bp spacing]” showed an activity (% B2M alleles edited) in series [15] of 5.66.

In series [16], “TCTGTGCTCTG (double strand) [B2M left 10 bp target]” had an activity (% B2M alleles edited) of 6.02.

In series [17], “TTTGCATCTGAGCTTCTA (double strand) [B2M right 17 bp target, 14 bp spacing]” returned an activity (% B2M alleles edited) of 4.96.

Sequence “TGAATCTGTGCTCTG (double strand) [B2M left 14 bp target]” displayed an activity (% B2M alleles edited) in [18] of 7.63.

Sequence “TTTGCATCTGAGCTTCTAA (double strand) [B2M right 18 bp target]” displayed an activity (% B2M alleles edited) in series [19] of 5.76.

For “TGCATCTGAGCTTCTAA (double strand) [B2M right 16 bp target, 13 bp spacing]”, in series [20], the activity (% B2M alleles edited) came out at 6.

In [21], “TCTGAGCTTCTA (double strand) [B2M right 11 bp target]” returned an activity (% B2M alleles edited) of 7.63.
